Laboratory results as given in patent publication US20030186281A1, “Modified tetracycline repressor protein compositions and methods of use” (priority 2001, published 2003).

B1: TetRrev4/6-6: revTetR(BD) D53Y V57V A61P (protein)
chain: MSRLDKSKVINSALELLNEVGIEGLTTRKLAQKLGVEQPTLYWHVKNKRALLYALAVEILPRHHDYSLPAAGESWQSFLRNNAMSFRRALLRYRDGAKVHLGTRPDEKQYDTVETQLRFMTENGFSLRDGLYAISAVSHFTLGAVLEQQEHTAALTDRPAAPDENLPPLLREALQIMDSDDGEQAFLHGLESLIRGFEVQLTALLQIV
modifications: Modified tetracycline repressor
notes: revTetR(BD) D53Y V57V A61P
B2: TetRrev4/6-10: revTetR(BD) A56S V99E (protein)
chain: MSRLDKSKVINSALELLNEVGIEGLTTRKLAQKLGVEQPTLYWHVKNKRALLDALSVEILARHHDYSLPAAGESWQSFLRNNAMSFRRALLRYRDGAKEHLGTRPDEKQYDTVETQLRFMTENGFSLRDGLYAISAVSHFTLGAVLEQQEHTAALTDRPAAPDENLPPLLREALQIMDSDDGEQAFLHGLESLIRGFEVQLTALLQIV
modifications: Modified tetracycline repressor
notes: revTetR(BD) A56S V99E
B3: TetRrev4/6-7: revTetR(BD) L55L L60V A97V V99G (protein)
chain: MSRLDKSKVINSALELLNEVGIEGLTTRKLAQKLGVEQPTLYWHVKNKRALLDALAVEIVARHHDYSLPAAGESWQSFLRNNAMSFRRALLRYRDGVKGHLGTRPDEKQYDTVETQLRFMTENGFSLRDGLYAISAVSHFTLGAVLEQQEHTAALTDRPAAPDENLPPLLREALQIMDSDDGEQAFLHGLESLIRGFEVQLTALLQIV
modifications: Modified tetracycline repressor
notes: revTetR(BD) L55L L60V A97V V99G
B4: TetRrev4/6-15: revTetR(BD) A56S I59A L60W V99V (protein)
chain: MSRLDKSKVINSALELLNEVGIEGLTTRKLAQKLGVEQPTLYWHVKNKRALLDALSVEAWARHHDYSLPAAGESWQSFLRNNAMSFRRALLRYRDGAKVHLGTRPDEKQYDTVETQLRFMTENGFSLRDGLYAISAVSHFTLGAVLEQQEHTAALTDRPAAPDENLPPLLREALQIMDSDDGEQAFLHGLESLIRGFEVQLTALLQIV
modifications: Modified tetracycline repressor
notes: revTetR(BD) A56S I59A L60W V99V
B5: TetRrev4/6-27: revTetR(BD) V99R (protein)
chain: MSRLDKSKVINSALELLNEVGIEGLTTRKLAQKLGVEQPTLYWHVKNKRALLDALAVEILARHHDYSLPAAGESWQSFLRNNAMSFRRALLRYRDGAKRHLGTRPDEKQYDTVETQLRFMTENGFSLRDGLYAISAVSHFTLGAVLEQQEHTAALTDRPAAPDENLPPLLREALQIMDSDDGEQAFLHGLESLIRGFEVQLTALLQIV
modifications: Modified tetracycline repressor
notes: revTetR(BD) V99R
B6: TetRrev28/23: revTetR(BD) A13A L14S N18K E23V (protein)
chain: MSRLDKSKVINSASELLKEVGIVGLTTRKLAQKLGVEQPTLYWHVKNKRALLDALAVEILARHHDYSLPAAGESWQSFLRNNAMSFRRALLRYRDGAKVHLGTRPDEKQYDTVETQLRFMTENGFSLRDGLYAISAVSHFTLGAVLEQQEHTAALTDRPAAPDENLPPLLREALQIMDSDDGEQAFLHGLESLIRGFEVQLTALLQIV
modifications: Modified tetracycline repressor
notes: revTetR(BD) A13A L14S N18K E23V
B7: TetRrev4/6-25: revTetR(BD) I59S L60L R62G D95A V99L (protein)
chain: MSRLDKSKVINSALELLNEVGIEGLTTRKLAQKLGVEQPTLYWHVKNKRALLDALAVESLAGHHDYSLPAAGESWQSFLRNNAMSFRRALLRYRAGAKLHLGTRPDEKQYDTVETQLRFMTENGFSLRDGLYAISAVSHFTLGAVLEQQEHTAALTDRPAAPDENLPPLLREALQIMDSDDGEQAFLHGLESLIRGFEVQLTALLQIV
modifications: Modified tetracycline repressor
notes: revTetR(BD) I59S L60L R62G D95A V99L
B8: TetRrev28/16: revTetR(BD) L14L E15A L17G L25V (protein)
chain: MSRLDKSKVINSALALGNEVGIEGVTTRKLAQKLGVEQPTLYWHVKNKRALLDALAVEILARHHDYSLPAAGESWQSFLRNNAMSFRRALLRYRDGAKVHLGTRPDEKQYDTVETQLRFMTENGFSLRDGLYAISAVSHFTLGAVLEQQEHTAALTDRPAAPDENLPPLLREALQIMDSDDGEQAFLHGLESLIRGFEVQLTALLQIV
modifications: Modified tetracycline repressor
notes: revTetR(BD) L14L E15A L17G L25V
B9: TetRrev28/8: revTetR(BD) L14S N18Y I22F L25L (protein)
chain: MSRLDKSKVINSASELLYEVGFEGLTTRKLAQKLGVEQPTLYWHVKNKRALLDALAVEILARHHDYSLPAAGESWQSFLRNNAMSFRRALLRYRDGAKVHLGTRPDEKQYDTVETQLRFMTENGFSLRDGLYAISAVSHFTLGAVLEQQEHTAALTDRPAAPDENLPPLLREALQIMDSDDGEQAFLHGLESLIRGFEVQLTALLQIV
modifications: Modified tetracycline repressor
notes: revTetR(BD) L14S N18Y I22F L25L
B10: TetRrev4/6-24: revTetR(BD) A61T V99R (protein)
chain: MSRLDKSKVINSALELLNEVGIEGLTTRKLAQKLGVEQPTLYWHVKNKRALLDALAVEILTRHHDYSLPAAGESWQSFLRNNAMSFRRALLRYRDGAKRHLGTRPDEKQYDTVETQLRFMTENGFSLRDGLYAISAVSHFTLGAVLEQQEHTAALTDRPAAPDENLPPLLREALQIMDSDDGEQAFLHGLESLIRGFEVQLTALLQIV
modifications: Modified tetracycline repressor
notes: revTetR(BD) A61T V99R
B11: TetRrev22/5: revTetR(BD) E15V L17A E19D (protein)
chain: MSRLDKSKVINSALVLANDVGIEGLTTRKLAQKLGVEQPTLYWHVKNKRALLDALAVEILARHHDYSLPAAGESWQSFLRNNAMSFRRALLRYRDGAKVHLGTRPDEKQYDTVETQLRFMTENGFSLRDGLYAISAVSHFTLGAVLEQQEHTAALTDRPAAPDENLPPLLREALQIMDSDDGEQAFLHGLESLIRGFEVQLTALLQIV
modifications: Modified tetracycline repressor
notes: revTetR(BD) E15V L17A E19D
B12: TetRrev3/38: revTetR(BD) L17H I22F E23G (protein)
chain: MSRLDKSKVINSALELHNEVGFGGLTTRKLAQKLGVEQPTLYWHVKNKRALLDALAVEILARHHDYSLPAAGESWQSFLRNNAMSFRRALLRYRDGAKVHLGTRPDEKQYDTVETQLRFMTENGFSLRDGLYAISAVSHFTLGAVLEQQEHTAALTDRPAAPDENLPPLLREALQIMDSDDGEQAFLHGLESLIRGFEVQLTALLQIV
modifications: Modified tetracycline repressor
notes: revTetR(BD) L17H I22F E23G
B13: TetRrev4/6-17: revTetR(BD) G99R V99L L101I (protein)
chain: MSRLDKSKVINSALELLNEVGIEGLTTRKLAQKLGVEQPTLYWHVKNKRALLDALAVEILARHHDYSLPAAGESWQSFLRNNAMSFRRALLRYRDRAKLHIGTRPDEKQYDTVETQLRFMTENGFSLRDGLYAISAVSHFTLGAVLEQQEHTAALTDRPAAPDENLPPLLREALQIMDSDDGEQAFLHGLESLIRGFEVQLTALLQIV
modifications: Modified tetracycline repressor
notes: revTetR(BD) G99R V99L L101I
B14: TetRrev1/34: revTetR(BD) L17S E23K (protein)
chain: MSRLDKSKVINSALELSNEVGIKGLTTRKLAQKLGVEQPTLYWHVKNKRALLDALAVEILARHHDYSLPAAGESWQSFLRNNAMSFRRALLRYRDGAKVHLGTRPDEKQYDTVETQLRFMTENGFSLRDGLYAISAVSHFTLGAVLEQQEHTAALTDRPAAPDENLPPLLREALQIMDSDDGEQAFLHGLESLIRGFEVQLTALLQIV
modifications: Modified tetracycline repressor
notes: revTetR(BD) L17S E23K
B15: TetRrev19/48: revTetR(BD) N18K E19D V20L I22N E23A (protein)
chain: MSRLDKSKVINSALELLKDLGNAGLTTRKLAQKLGVEQPTLYWHVKNKRALLDALAVEILARHHDYSLPAAGESWQSFLRNNAMSFRRALLRYRDGAKVHLGTRPDEKQYDTVETQLRFMTENGFSLRDGLYAISAVSHFTLGAVLEQQEHTAALTDRPAAPDENLPPLLREALQIMDSDDGEQAFLHGLESLIRGFEVQLTALLQIV
modifications: Modified tetracycline repressor
notes: revTetR(BD) N18K E19D V20L I22N E23A
B16: TetRrev25/43: revTetR(BD) L17F E19- G24G (protein)
chain: MSRLDKSKVINSALELFNVGIEGLTTRKLAQKLGVEQPTLYWHVKNKRALLDALAVEILARHHDYSLPAAGESWQSFLRNNAMSFRRALLRYRDGAKVHLGTRPDEKQYDTVETQLRFMTENGFSLRDGLYAISAVSHFTLGAVLEQQEHTAALTDRPAAPDENLPPLLREALQIMDSDDGEQAFLHGLESLIRGFEVQLTALLQIV
modifications: Modified tetracycline repressor
notes: revTetR(BD) L17F E19- G24G

System: tet operator sequence
Experiment: β-galactosidase activity of a tetracycline-regulated promoter in transformed E. coli with revTetR, in the presence and absence of anhydrotetracycline (atc)
Assay type: cell-based, Escherichia coli
Details: for β-Galactosidase Activity, Cultured Without ATC: RevTetR isolate cultured in the absence of anhydrotetracycline (ATC); for β-Galactosidase Activity, Cultured With ATC: RevTetR isolate cultured in the presence of anhydrotetracycline (ATC)
Method in brief: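 TetR(BD) chimera mutants (TetR(B) residues 1–50, TetR(D) 51–208) expressed in E. coli regulating a tet operator-controlled lacZ. β-Galactosidase measured in Miller units at 28 °C and 37 °C with and without anhydrotetracycline; reported as percent of maximal expression without Tet repressor.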

| Molecule | β-Galactosidase Activity, Cultured Without ATC | β-Galactosidase Activity, Cultured With ATC |
| --- | --- | --- |
| B1 | 67.879 | 3.197 |
| B2 | 97.964 | 6.149 |
| B3 | 86.036 | 2.151 |
| B4 | 66.054 | 7.647 |
| B5 | 108 | 49 |
| B6 | 92.2055 | 2.9867 |
| B7 | 102.926 | 3.433 |
| B8 | 96.3269 | 0.9453 |
| B9 | 98.6289 | 4.4123 |
| B10 | 95.596 | 2.428 |
| B11 | 92.312 | 0.9755 |
| B12 | 97.043 | 1.8287 |
| B13 | 54.403 | 2.601 |
| B14 | 79.3141 | 0.9226 |
| B15 | 79.9581 | 1.1143 |
| B16 | 99.1241 | 1.7535 |
